Source: paper PMC3036151, “Cloning and endogenous expression of a Eucalyptus grandis UDP-glucose dehydrogenase cDNA” (Genetics and Molecular Biology, 2010)

Tests used:
purified protein [1] = substrate: NC(=O)c1ccc[n+]([C@@H]2O[C@H](COP(=O)(O)OP(=O)(O)OC[C@H]3O[C@@H](n4cnc5c(N)ncnc54)[C@H](O)[C@@H]3O)[C@@H](O)[C@H]2O)c1; assay: purified protein; assay type: biochemical, Eucalyptus grandis; settings: UDP-glucose saturating (1 mM), 20 mM Tris-HCl pH 8.0, 2 mM MgCl2, 30 °C, panel letters in text and Figure 3 caption are swapped, varied: cofactor
purified protein [2] = substrate: O=c1ccn([C@@H]2O[C@H](CO[P@@](=O)(O)O[P@@](=O)(O)O[C@H]3O[C@H](CO)[C@@H](O)[C@H](O)[C@H]3O)[C@@H](O)[C@H]2O)c(=O)[nH]1; assay: purified protein; assay type: biochemical, Eucalyptus grandis; settings: NAD+ saturating (1 mM), 20 mM Tris-HCl pH 8.0, 2 mM MgCl2, 30 °C, panel letters in text and Figure 3 caption are swapped

B1: UDP-glucose dehydrogenase (UGDH), Poly-His-Tagged eucalyptus UDP-GDH, UDP-GlucDH (Eucalyptus grandis) (protein)
chain: MVKICCIGAGYVGGPTMAVIALKCPSVEVAVVDISVSRIQAWNSEQLPIYEPGLDAVVKQCRGKNLFFSTDVEKHVFEADIVFVSVNTPTKTRGLGAGKAADLTYWESAARMIADVSKSDKIVVEKSTVPVKTAEAIEKILTHNSKGIKFQILSNPEFLAEGTAIQDLFAPDRVLIGGRETPEGQKAIQTLKDVYAHWVPEDRILTTNLWSAELSKLAANAFLAQRISSVNAMSSLCEATGADVAQVSYAVGKDSRIGPKFLNASVGFGGSCFQKDILNLVYICECNGLPEVAEYWKQVIKINDYQKARFVNRVVSSMFNTVSNKKIAILGFAFKKDTGDTRETPAIDVCKGLLGDKARLSIYDPQVTEEQIQRDLTMNKFDWDHPVHLQPMSPTTVKQVSVVWDAYDAVKDAHGLCILTEWDEFKTLDYQRIYDNMQKPAYIFDGRNVVNVNKLREIGFIVYSIGKPLDPWLKDMPAVA
notes: full-length ORF (1443 bp, 480 residues, about 53 kDa) from cambial-region cDNA, N-terminal 6xHis tag (pDEST17) kept, E. coli BL21-AI; cDNA ends set by degenerate primers
For B1, the Km (purified protein [1]) was 67.3 ± 17.9 µM and the Km (purified protein [2]) was 60.7 ± 8.5 µM.
